US7709002 (US Dept. of Health and Human Services, dated 2010)

Experiments:
HLA-A2 [1] = target: HLA-A2 (human); experiment: T2 bioassay (peptide 50 µg/ml + b2m 3 µg/ml, overnight), flow cytometry, stained with anti-HLA-A2 MAb
HLA-A2 [2] = target: HLA-A2 (human); experiment: T2 bioassay (peptide 50 µg/ml + b2m 3 µg/ml, overnight), flow cytometry, stained with pan class I MAb W6/32

B1: wild-type ras5-14(Gly12) peptide (peptide)
peptide: KLVVVGAGGV
notes: also called ras5-14(G12); normal ras 10-mer
MFI (HLA-A2 [1]): 285 | MFI (HLA-A2 [2]): 523
